Data reported in FireProtDB (doi:10.1021/bi047926u).
“And” between values parts separate entries of the source, which are not always exact repeats. Equal values may be shown once.

B1: Manganese-dependent inorganic pyrophosphatase, P37487 (parent)
chain: MEKILIFGHQNPDTDTICSAIAYADLKNKLGFNAEPVRLGQVNGETQYALDYFKQESPRLVETAANEVNGVILVDHNERQQSIKDIEEVQVLEVIDHHRIANFETAEPLYYRAEPVGCTATILNKMYKENNVKIEKEIAGLMLSAIISDSLLFKSPTCTDQDVAAAKELAEIAGVDAEEYGLNMLKAGADLSKKTVEELISLDAKEFTLGSKKVEIAQVNTVDIEDVKKRQAELEAVISKVVAEKNLDLFLLVITDILENDSLALAIGNEAAKVEKAFNVTLENNTALLKGVVSRKKQVVPVLTDAMAE

Variants of: B1
Conditions: Bacillus subtilis (strain 168); pH 7.2; Thermal; CD; TES-KOH 21 mM; KCl 4 mM; reversible: No; structure 1K23; whole UniProt chain shown

Variant | Tm
H9Q | 54 °C
D13E | 44 °C and 42 °C
H76Q | 59 °C
H98Q | 48 °C
D149E | 52 °C and 47 °C
D203E | 42 °C

Same assay, conditions: Bacillus subtilis (strain 168); pH 7.2; Thermal; CD; TES-KOH 21 mM; KCl 4 mM; transition: 3; reversible: No; structure 1K23; whole UniProt chain shown

Variant | Tm [°C]
D13E | 69
